The values that follow come from paper PMC9508819, “Rbp95 binds to 25S rRNA helix H95 and cooperates with the Npa1 complex during early pre-60S particle maturation”.

One data set has as its target T1, Rbp95 1-85 (Saccharomyces cerevisiae, UniProt P25617 1-85).
T1 sequence: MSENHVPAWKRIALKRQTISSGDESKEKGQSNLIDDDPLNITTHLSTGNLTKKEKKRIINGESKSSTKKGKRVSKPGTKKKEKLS
The data set can be described thus: EMSA; 100- or 500-fold excess; strong shift, slightly more protein needed than full length; EMSA: 25 mM Tris-HCl pH 7.5, 75 mM NaCl, 2.5 mM MgCl2, 3.5% glycerol, 0.025% Tween 20, 0.5 mM DTT, 5 nM Cy5-RNA, 30 min at RT; 4-20% TBE gel. The settings on record: protein: recombinant; tags: N-terminal His6; label: 5'-Cy5; hairpin.

Data set [1] has as its target T2, Rbp95 full length (Saccharomyces cerevisiae, UniProt P25617 1-290).
T2 sequence: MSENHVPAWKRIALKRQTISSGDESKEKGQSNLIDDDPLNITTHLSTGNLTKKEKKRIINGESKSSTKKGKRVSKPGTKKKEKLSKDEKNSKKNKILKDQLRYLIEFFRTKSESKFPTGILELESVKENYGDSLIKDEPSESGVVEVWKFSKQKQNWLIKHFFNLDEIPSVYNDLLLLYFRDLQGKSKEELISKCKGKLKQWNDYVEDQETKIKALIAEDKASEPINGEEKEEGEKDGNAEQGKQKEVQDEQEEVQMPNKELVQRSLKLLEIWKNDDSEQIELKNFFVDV
As to the kind of experiment: EMSA; 5 nM RNA; shift starts at 1.5-fold excess of Rbp95; EMSA: 25 mM Tris-HCl pH 7.5, 75 mM NaCl, 2.5 mM MgCl2, 3.5% glycerol, 0.025% Tween 20, 0.5 mM DTT, 5 nM Cy5-RNA, 30 min at RT; 4-20% TBE gel. The settings on record: protein: recombinant; tags: N-terminal His6; label: 5'-Cy5; hairpin.

A further data set concerns the target T3, Rbp95 183-end (Saccharomyces cerevisiae, UniProt P25617 183-290).
T3 sequence: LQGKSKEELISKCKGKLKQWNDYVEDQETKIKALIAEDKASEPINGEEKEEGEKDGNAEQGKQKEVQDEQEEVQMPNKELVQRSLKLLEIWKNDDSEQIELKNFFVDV
As to the kind of experiment: EMSA; 100- or 500-fold excess; not sufficient for binding; EMSA: 25 mM Tris-HCl pH 7.5, 75 mM NaCl, 2.5 mM MgCl2, 3.5% glycerol, 0.025% Tween 20, 0.5 mM DTT, 5 nM Cy5-RNA, 30 min at RT; 4-20% TBE gel. The settings on record: protein: recombinant; tags: N-terminal His6; label: 5'-Cy5; hairpin.

Data set [2] deals with T2, Rbp95 full length. The data set can be described thus: competition; 20-100-fold excess over Cy5-H95; reverts shift; EMSA: 25 mM Tris-HCl pH 7.5, 75 mM NaCl, 2.5 mM MgCl2, 3.5% glycerol, 0.025% Tween 20, 0.5 mM DTT, 5 nM Cy5-RNA, 30 min at RT; 4-20% TBE gel. Conditions: protein: recombinant; tags: N-terminal His6; hairpin.
The target of data set [3] is T2, Rbp95 full length. As to the kind of experiment: EMSA; 5 nM RNA; shift starts at 1.5-fold excess; similar to H95; EMSA: 25 mM Tris-HCl pH 7.5, 75 mM NaCl, 2.5 mM MgCl2, 3.5% glycerol, 0.025% Tween 20, 0.5 mM DTT, 5 nM Cy5-RNA, 30 min at RT; 4-20% TBE gel. Conditions: protein: recombinant; tags: N-terminal His6; label: 5'-Cy5; hairpin.

For the molecule AAAGGGAAUUGAACUUAGUACGAGAGGAACAGUUCAUUUCCC (structured_RNA) [helix H95 (25S rRNA)], the binding result in the data set with Rbp95 1-85 is “binds”; in the data set with Rbp95 full length [1], “binds”; with Rbp95 183-end, “no binding”.
With AAAGGGAAUUGAACUUAGUACGAGAGGAACAGUUCAUUUCCC (structured_RNA) [helix H95 unlabeled competitor], the binding result with Rbp95 full length [2] is recorded as “binds”.
For the molecule AAAGGGCGUCAGGGUUGAUAUGAUGCCCUGACGCCC (structured_RNA) [helix H45 (25S rRNA)], the binding result with Rbp95 full length [3] is listed as “binds”.
